Patent publication US20110020347A1

Molecular target: mouse CXCL14 (R&D Systems) (mouse) (UniProt Q9WUQ5)
Assay: cell-based or functional assay

Chain of UniProt Q9WUQ5 (Q9WUQ5 23-99): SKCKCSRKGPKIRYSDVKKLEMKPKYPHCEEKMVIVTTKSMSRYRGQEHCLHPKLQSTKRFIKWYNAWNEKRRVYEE

- inhibition of attraction (chemotaxis) of forskolin-stimulated C2C12 cells by mouse CXCL14, antibody at 10 µg/ml, CXCL14 at 100 nM: 54%
Substance: rat anti-mouse CXCL14 monoclonal antibody (MAB730, R&D Systems)
